Measurements from US12643935B2, “PD-L1 binding peptides” (UNIVERSITY OF SOUTHERN CALIFORNIA, priority 2020, dated 2026).
Entries after “also recorded” stand apart in the source; their conditions may differ. Where no end group is shown, it is not given here. [ ]: non-standard residue; d: D form. NMeNle = CCCC[C@H](NC)C(=O)O; NMeA = CN[C@@H](C)C(=O)O

Columns and labels:
[1] = molecular target: T1, hPD-L1 (Homo sapiens, UniProt Q9NZQ7); assay: Radiolabeled [35S] peptide binding assay on immobilized hPD-L1; design: designed from A18 to T239 with a methionine added to the N-terminus; hexahistidine tag (C); made in house; details: for hPD-L1 binding of SPAM alanine mutant normalized to SPAM: [35S]-labeled variants, n=3
Description: [^35S]-labeled peptides were translated as described above by including 2 μCi labeled methionine (Perkin Elmer) per 10 pmol of template in the translation reaction. Each peptide was tested with a […] (for X9-library derived peptides) (SEQ ID NO: 11) or a […] (for X17-library derived peptides) (SEQ ID NO: 12) C-terminal sequence. […] The supernatant was removed and was counted. The beads were subsequently washed three times with 1 mL of blocking buffer and the washes were also counted. Finally, the beads were resuspended in 1 mL of blocking buffer and were counted separately. The ratio of the counts remaining on the beads to the total counts added to the binding reaction (the sum of the counts for supernatant, washes, and beads) was calculated to determine the percent bound.

[2] = system: hPD-L1; details: known peptides; cited from earlier work
[3] = molecular target: T1, hPD-L1; assay: Radioactive binding assay of second-generation clones on immobilized human PD-L1; design: target for immobilization and selection, the extracellular domain of hPD-L1 (from A18 to T239); hexahistidine tag (C); details: 22° C., 2.5 or 12.5 pmol immobilized PD-L1
[4] = molecular target: T1, hPD-L1; assay: Binding of second-generation fusions after RNase treatment and in 25% human serum; design: target for immobilization and selection, the extracellular domain of hPD-L1 (from A18 to T239); hexahistidine tag (C); details: 22° C., 25 pmol PD-L1; for binding to hPD-L1 after RNase treatment: RNase A 30 min 37° C.; for binding to hPD-L1 in human serum: RNase-treated fusions in 25% human serum in DMEM
Description: The sequences identified from Sanger sequencing (A,B,C,D) were tested under binding conditions modified to be similar to physiological conditions and compared to the wildtype sequence (S) (FIG. 14). Sequences were prepared as fusions in standard blocking buffer, as RNase-treated fusions (RNase A treatment for 30 min. at 37° C.) in standard blocking buffer, or as RNase-treated fusions in 25% human serum in DMEM. Binding was measured at 22° C. with 0 and 25 pmol biotinylated PD-L1.

13A: SPAM variant, alanine substituted at position 3 (MPAFLDHILNKFWILHYAGSGSSGHHHHHHSS) [Peptide 13A]
hPD-L1 binding of SPAM alanine mutant normalized to SPAM [1]: little or no significant influence

18A: SPAM variant, alanine substituted at position 8 (MPIFLDHALNKFWILHYAGSGSSGHHHHHHSS) [Peptide 18A]
hPD-L1 binding of SPAM alanine mutant normalized to SPAM [1]: little or no significant influence

114A: SPAM variant, alanine substituted at position 14 (MPIFLDHILNKFWALHYAGSGSSGHHHHHHSS) [Peptide 114A]
hPD-L1 binding of SPAM alanine mutant normalized to SPAM [1]: completely abolished hPD-L1 binding

A18: SPAM variant, glycine substituted for alanine at position 18 (MPIFLDHILNKFWILHYGGSGSSGHHHHHHSS; not fully specified) [Peptide A18]
hPD-L1 binding of SPAM alanine mutant normalized to SPAM [1]: completely abolished hPD-L1 binding

Cyclo[(AcPhe)(NMePhe)(NMeNle)(Sar)DV(NMePhe)Y(Sar)WYLC-Gly-NH2 [Peptide-71]
EC50 [2]: 0.293 µM | IC50 [2]: 0.007 µM

Cyclo[(AcPhe)NMeAla)NPHLSWSW(NMeNle)(NMeNle)RC]Gly-NH2 (Ac-F[NMeA]NPHLSWSW[NMeNle][NMeNle]RCG-NH2; bridge (positions not given here); also: cyclic, ring from residue 1 to Cys 14, linkage type not given here) [Peptide-57]
EC50 [2]: 0.566 µM | IC50 [2]: 0.009 µM

D6A: SPAM variant, alanine substituted at position 6 (MPIFLAHILNKFWILHYAGSGSSGHHHHHHSS) [Peptide D6A]
hPD-L1 binding of SPAM alanine mutant normalized to SPAM [1]: completely abolished hPD-L1 binding

DYHDPSLPTLRK [CLP004]
IC50 [2]: 1.17 µM | Kd [2]: 0.544 µM

F4A: SPAM variant, alanine substituted at position 4 (MPIALDHILNKFWILHYAGSGSSGHHHHHHSS) [Peptide F4A]
hPD-L1 binding of SPAM alanine mutant normalized to SPAM [1]: little or no significant influence

F12A: SPAM variant, alanine substituted at position 12 (MPIFLDHILNKAWILHYAGSGSSGHHHHHHSS) [Peptide F12A]
hPD-L1 binding of SPAM alanine mutant normalized to SPAM [1]: completely abolished hPD-L1 binding

H7A: SPAM variant, alanine substituted at position 7 (MPIFLDAILNKFWILHYAGSGSSGHHHHHHSS) [Peptide H7A]
hPD-L1 binding of SPAM alanine mutant normalized to SPAM [1]: completely abolished hPD-L1 binding

H16A: SPAM variant, alanine substituted at position 16 (MPIFLDHILNKFWILAYAGSGSSGHHHHHHSS) [Peptide H16A]
hPD-L1 binding of SPAM alanine mutant normalized to SPAM [1]: completely abolished hPD-L1 binding

HYPFRPHANQAS [CLP001]
Kd [2]: 0.534 µM

K11A: SPAM variant, alanine substituted at position 11 (MPIFLDHILNAFWILHYAGSGSSGHHHHHHSS) [Peptide K11A]
hPD-L1 binding of SPAM alanine mutant normalized to SPAM [1]: completely abolished hPD-L1 binding

KHAHHTHNLRLP [D-PPA-2]
Kd [2]: 1.13 µM

L5A: SPAM variant, alanine substituted at position 5 (MPIFADHILNKFWILHYAGSGSSGHHHHHHSS) [Peptide L5A]
hPD-L1 binding of SPAM alanine mutant normalized to SPAM [1]: little or no significant influence

L9A: SPAM variant, alanine substituted at position 9 (MPIFLDHIANKFWILHYAGSGSSGHHHHHHSS) [Peptide L9A]
hPD-L1 binding of SPAM alanine mutant normalized to SPAM [1]: little or no significant influence

L15A: SPAM variant, alanine substituted at position 15 (MPIFLDHILNKFWIAHYAGSGSSGHHHHHHSS) [Peptide L15A]
hPD-L1 binding of SPAM alanine mutant normalized to SPAM [1]: completely abolished hPD-L1 binding

MEFTSDHSLNKFIILHYANNPF [Peptide C]
binding to immobilized human PD-L1 relative to parental SPAM (S) [3]: comparable binding to the most frequent sequences; also recorded: better binding than the parental SPAM | binding to hPD-L1 after RNase treatment [4]: significant net binding; also recorded: show binding | binding to hPD-L1 in human serum [4]: significant net binding; also recorded: show binding

MKHSTDHVLNKFYIMHYTANPN [Peptide 9]
binding to immobilized human PD-L1 relative to parental SPAM (S) [3]: better binding than the parental SPAM

MRIFAVFIFMTYWHLLNA [hPD-L1 signal peptide]
binding to heavily loaded hPD-L1 beads ([1]; streptavidin agarose beads loaded with 1.1 μM hPD-L1 (1,100 pmol)): some binding

MWSITDHNLNKFWILHYATKHG
binding to immobilized human PD-L1 relative to parental SPAM (S) [3]: better binding than the parental SPAM | binding to hPD-L1 after RNase treatment [4]: significant net binding; also recorded: show binding | binding to hPD-L1 in human serum [4]: significant net binding; also recorded: show binding

MWSRSDHNLNKFWILHYSANPS [Peptide 7]
binding to immobilized human PD-L1 relative to parental SPAM (S) [3]: better binding than the parental SPAM

MYSHNDHNLNKFWILHFAVNQM [Peptide B]
binding to immobilized human PD-L1 relative to parental SPAM (S) [3]: better binding than the parental SPAM | binding to hPD-L1 after RNase treatment [4]: significant net binding; also recorded: show binding | binding to hPD-L1 in human serum [4]: significant net binding; also recorded: show binding

MYSLNDHNLNKFWILHFAVNQM [Peptide 5]
binding to immobilized human PD-L1 relative to parental SPAM (S) [3]: better binding than the parental SPAM

MYSRVDHNLNKFWILHQALKSN [Peptide 8]
binding to immobilized human PD-L1 relative to parental SPAM (S) [3]: better binding than the parental SPAM

MYTDADHILNKFLIMHYARNQQ [Peptide 1]
binding to immobilized human PD-L1 relative to parental SPAM (S) [3]: better binding than the parental SPAM

MYTLTDHILNKFWIMHYARNPT
binding to immobilized human PD-L1 relative to parental SPAM (S) [3]: comparable binding to the most frequent sequences; also recorded: better binding than the parental SPAM | binding to hPD-L1 after RNase treatment [4]: significant net binding; also recorded: show binding | binding to hPD-L1 in human serum [4]: significant net binding; also recorded: show binding

MYTQTDHTLNKFLIMHEAFNST [Peptide 3]
binding to immobilized human PD-L1 relative to parental SPAM (S) [3]: better binding than the parental SPAM

MYTSTDHILNKFLILHESLQST [Peptide 6]
binding to immobilized human PD-L1 relative to parental SPAM (S) [3]: better binding than the parental SPAM

N10A: SPAM variant, alanine substituted at position 10 (MPIFLDHILAKFWILHYAGSGSSGHHHHHHSS) [Peptide N10A]
hPD-L1 binding of SPAM alanine mutant normalized to SPAM [1]: completely abolished hPD-L1 binding

NYSKPTDRQYHF [D-PPA-1]
Kd [2]: 0.51 µM

P2A: SPAM variant, alanine substituted at position 2 (MAIFLDHILNKFWILHYAGSGSSGHHHHHHSS) [Peptide P2A]
hPD-L1 binding of SPAM alanine mutant normalized to SPAM [1]: decreased levels of hPD-L1 binding

SGQYASYHCWCWRDPGRSGGSK [TPP-1]
Kd [2]: 0.095 µM

W13A: SPAM variant, alanine substituted at position 13 (MPIFLDHILNKFAILHYAGSGSSGHHHHHHSS) [Peptide W13A]
hPD-L1 binding of SPAM alanine mutant normalized to SPAM [1]: completely abolished hPD-L1 binding

WHFSYNWRWLPP [CLP003]
IC50 [2]: 2.22 µM | Kd [2]: 0.117 µM

WHRSYYTWNLNT [CLP002]
IC50 [2]: 2.17 µM | Kd [2]: 0.366 µM

Y18A: SPAM variant, alanine substituted for tyrosine (position 17 of SPAM) (MPIFLDHILNKFWILHAAGSGSSGHHHHHHSS) [Peptide Y18A]
hPD-L1 binding of SPAM alanine mutant normalized to SPAM [1]: decreased levels of hPD-L1 binding
